US20120100575A1 (Biogen, published 2012)

Legend:
[1] = target: T1, FcγRI (CD64) on IFNγ-activated U937 cells (UniProt P12314 16-374, limits assumed); test: FcγRI bridging assay, FIG. 13 upper panel
T1 construct: whole, on cells; also called FcRγI
Description: (§1) Briefly, the FcγR bridging assay was performed by coating 96 well Maxisorb ELISA plates (Nalge-Nunc Rochester, N.Y., USA) with recombinant soluble human CD154 ligand (i.e., at a concentration of 1 μg/ml overnight at 4° C. in PBS; Karpusas, Hsu et al. 1995). Titrations of glycosylated or aglycosylated forms of anti-CD154 antibody (hu5c8) were then bound to CD154 for 30 minutes at 37° C., the plates were then washed, and the binding of fluorescently labeled U937 (CD64⁺) cells was measured. The U937 cells were grown in RPMI medium with 10% FBS, 10 mM HEPES, L-glutamine, and penicillin/streptomycin, split 1:2, and activated for one day prior to the assay with 1000 units/ml of IFNγ to increase Fc receptor (FcγRI) expression.
(§2) In the assays for both receptors, the Fc receptor-bearing cells were labeled with 2′,7′-bis-(2-carboxyethyl)-5-(and-6)-carboxyfluorescein acetoxymethyl ester (BCECF-AM) (Molecular Probes Eugene, Oreg., USA) for 20 minutes at 37° C. After washing to remove excess label, 1×10⁵ of the labeled cells were incubated in the assay for 30 minutes at 37° C. Unbound FcγR positive cells were removed by washing several times and plates were read on a microplate reader (Cytofluor 2350 Fluorescent Microplate Reader, Millipore Corporation Bedford, Mass., USA) at an excitation wavelength of 485 nm and an emission wavelength of 530 nm.

human C1q (Sigma C0660) [2] = target: T2, human C1q (Sigma C0660) (human, UniProt P02745 23-245; P02746 28-253; P02747 29-245); test: C1q bridging ELISA: antibody captured on plate-coated soluble human CD154, human C1q detected with sheep anti-C1q
T2 construct: The three subunits come from general knowledge of C1q; also called complement protein C1q
T2 sequence (P02745 23-245 limits assumed, chain 1 of 3): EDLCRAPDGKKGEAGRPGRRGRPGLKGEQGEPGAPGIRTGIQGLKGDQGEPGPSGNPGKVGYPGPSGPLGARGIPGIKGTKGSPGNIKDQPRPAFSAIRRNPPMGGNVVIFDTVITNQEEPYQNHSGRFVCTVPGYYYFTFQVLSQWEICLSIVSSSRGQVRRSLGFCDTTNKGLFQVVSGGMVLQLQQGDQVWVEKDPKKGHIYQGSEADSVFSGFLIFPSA
T2 sequence (P02746 28-253 limits assumed, chain 2 of 3): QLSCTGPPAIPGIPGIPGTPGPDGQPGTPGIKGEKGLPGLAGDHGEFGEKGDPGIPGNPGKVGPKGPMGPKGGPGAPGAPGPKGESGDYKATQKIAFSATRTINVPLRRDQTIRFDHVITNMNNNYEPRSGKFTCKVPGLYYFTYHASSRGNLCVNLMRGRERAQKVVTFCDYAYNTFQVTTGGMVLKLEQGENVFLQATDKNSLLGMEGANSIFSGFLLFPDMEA
T2 sequence (P02747 29-245 limits assumed, chain 3 of 3): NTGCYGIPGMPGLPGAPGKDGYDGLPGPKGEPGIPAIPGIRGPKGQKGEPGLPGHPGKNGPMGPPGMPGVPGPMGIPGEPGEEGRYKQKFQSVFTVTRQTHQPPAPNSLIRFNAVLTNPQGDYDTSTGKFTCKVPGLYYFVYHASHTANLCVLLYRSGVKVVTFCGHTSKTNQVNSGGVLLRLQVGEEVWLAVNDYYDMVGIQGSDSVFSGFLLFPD
Description: (§3) The C1q binding assay was performed by coating 96 well Maxisorb ELISA plates (Nalge-Nunc Rochester, N.Y., USA) with 50 μl recombinant soluble human CD154 ligand (Karpusas et al. Structure, 15;3(12):1426 (1995) at 10 μg/ml overnight at 4° C. in PBS. The wells were aspirated and washed three times with wash buffer (PBS, 0.05% Tween 20) and blocked for ≧1 h with 200 μl/well of block/diluent buffer (0.1 M Na₂HPO₄, pH 7, 0.1 M NaCl, 0.05% Tween 20, 0.1% gelatin). The antibody to be tested was diluted in block/diluent buffer starting at 15 μg/ml with 3-fold dilutions. 50 μl were added per well, and the plates incubated for 2 h at room temperature. After aspirating and washing as above, 50 μl/well of 2 μg/ml of Sigma human C1q (C0660) diluted in block/diluent buffer was added and incubated for 1.5 h at room temperature. After aspirating and washing as above, 50 μl/well of sheep anti C1q (Serotec AHP033), diluted 3,560-fold in block/diluent buffer, was added. After incubation for 1 h at room temperature, the wells were aspirated and washed as above. […] The absorbance was read at 450 nm with a Softmax PRO instrument, and Softmax software was used to determine the relative binding affinity (C value) with a 4-parameter fit.

human C1q (Sigma C0660) [3] = target: T2, human C1q (Sigma C0660); test: C1q bridging ELISA: antibody captured on plate-coated soluble human CD154, human C1q 2 µg/ml detected with sheep anti-C1q
Description: as §3

[4] = target: T1, FcγRI (CD64) on IFNγ-activated U937 …; test: FcγRI bridging assay: antibody captured on plate-coated soluble human CD154, binding of fluorescently labeled IFNγ-activated U937 (CD64+) cells
Description: as §1, §2

T1 sequence (P12314 16-374 limits assumed): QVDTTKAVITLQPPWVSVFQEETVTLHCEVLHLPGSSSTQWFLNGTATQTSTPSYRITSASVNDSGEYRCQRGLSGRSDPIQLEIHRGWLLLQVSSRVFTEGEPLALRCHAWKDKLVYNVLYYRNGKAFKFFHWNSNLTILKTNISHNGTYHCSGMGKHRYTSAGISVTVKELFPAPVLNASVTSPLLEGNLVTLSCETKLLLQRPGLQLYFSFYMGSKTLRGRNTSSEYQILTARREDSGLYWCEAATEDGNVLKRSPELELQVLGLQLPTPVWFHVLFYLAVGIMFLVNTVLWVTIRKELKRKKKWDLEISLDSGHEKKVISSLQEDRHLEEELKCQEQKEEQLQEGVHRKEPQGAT

Binder | binding result [1] | binding result (human C1q (Sigma C0660) [2]) | binding result (human C1q (Sigma C0660) [3]) | binding result [4]
hu5c8 IgG4 variant (S228P/T299A), aglycosylated (antibody, also called IgG4 T299A; aglycosyl IgG4 T299A antibody variant) heavy: not shown light: DIVLTQSPATLSVSPGERATISCRASQRVSSSTYSYMHWYQQKPGQPPKLLIKYASNLESGVPARFSGSGSGTDFTLTISSVEPEDFATYYCQHSWEIPPTFGGGTKLEIKRTVAAPSVFIFPPSDEQLKSGTASVVCLLNNFYPREAKVQWKVDNALQSGNSQESVTEQDSKDSTYSLSSTLTLSKADYEKHKVYACEVTHQGLSSPVTKSFNRGEC | binds | no binding |  | 
hu5c8 IgG1 (glycosylated parent anti-CD154 antibody) (antibody, Expressed in EBNA 293 cells; also called hu5c8 antibody; glycosylated IgG1) heavy: not shown light: DIVLTQSPATLSVSPGERATISCRASQRVSSSTYSYMHWYQQKPGQPPKLLIKYASNLESGVPARFSGSGSGTDFTLTISSVEPEDFATYYCQHSWEIPPTFGGGTKLEIKRTVAAPSVFIFPPSDEQLKSGTASVVCLLNNFYPREAKVQWKVDNALQSGNSQESVTEQDSKDSTYSLSSTLTLSKADYEKHKVYACEVTHQGLSSPVTKSFNRGEC |  |  | binds | binds
